T1: DFNB31_2, Q9P202
T1 sequence (Q9P202 274-371, limits assumed, looked up): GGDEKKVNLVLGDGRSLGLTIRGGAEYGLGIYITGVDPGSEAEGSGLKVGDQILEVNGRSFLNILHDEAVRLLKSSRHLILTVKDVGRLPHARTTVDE

T2: DFNB31_3, Q9P202
T2 sequence (Q9P202 811-907, limits assumed, looked up): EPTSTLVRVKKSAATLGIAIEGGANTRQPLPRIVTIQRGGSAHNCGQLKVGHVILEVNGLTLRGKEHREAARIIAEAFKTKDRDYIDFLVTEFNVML

T3: DLG3_3, Q92796
T3 sequence (Q92796 374-475, limits assumed, looked up): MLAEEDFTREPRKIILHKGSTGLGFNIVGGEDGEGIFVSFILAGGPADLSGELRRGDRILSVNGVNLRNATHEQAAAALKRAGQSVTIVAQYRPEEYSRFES

T4: GRIP1_4, Q9Y3R0
T4 sequence (Q9Y3R0 467-571, limits assumed, looked up): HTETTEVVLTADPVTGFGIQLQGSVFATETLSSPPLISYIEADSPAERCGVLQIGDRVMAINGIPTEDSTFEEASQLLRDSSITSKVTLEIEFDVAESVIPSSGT

T5: LRRC7, Q96NW7
T5 sequence (Q96NW7 1440-1537, limits assumed, looked up): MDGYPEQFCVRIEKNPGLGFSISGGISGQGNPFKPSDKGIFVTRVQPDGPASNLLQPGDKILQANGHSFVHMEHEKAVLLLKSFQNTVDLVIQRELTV

T6: MPP2, Q14168
T6 sequence (Q14168 180-250, limits assumed, looked up): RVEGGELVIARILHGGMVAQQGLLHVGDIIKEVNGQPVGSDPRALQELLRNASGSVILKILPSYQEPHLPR

T7: NHERF3_4, Q5T2W1
T7 sequence (Q5T2W1 373-468, limits assumed, looked up): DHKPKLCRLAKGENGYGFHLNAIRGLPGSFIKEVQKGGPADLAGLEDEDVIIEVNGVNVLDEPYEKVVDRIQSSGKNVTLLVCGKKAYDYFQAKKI

T8: PARD3B_1, Q8TEW8
T8 sequence (Q8TEW8 196-299, limits assumed, looked up): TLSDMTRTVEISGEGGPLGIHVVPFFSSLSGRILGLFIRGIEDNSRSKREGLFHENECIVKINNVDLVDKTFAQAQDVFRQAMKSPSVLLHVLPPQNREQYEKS

T9: PDZD2_2, O15018
T9 sequence (O15018 329-429, limits assumed, looked up): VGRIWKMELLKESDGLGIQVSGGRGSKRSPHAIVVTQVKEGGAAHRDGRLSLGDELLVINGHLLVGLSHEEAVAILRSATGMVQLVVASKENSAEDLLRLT

T10: RAPGEF6, Q8TEU7
T10 sequence (Q8TEU7 525-625, limits assumed, looked up): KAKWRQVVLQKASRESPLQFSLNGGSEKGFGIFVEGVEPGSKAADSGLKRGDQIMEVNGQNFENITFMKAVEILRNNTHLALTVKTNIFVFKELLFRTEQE

T11: GRIP1_5, Q9Y3R0
T11 sequence (Q9Y3R0 568-668, limits assumed, looked up): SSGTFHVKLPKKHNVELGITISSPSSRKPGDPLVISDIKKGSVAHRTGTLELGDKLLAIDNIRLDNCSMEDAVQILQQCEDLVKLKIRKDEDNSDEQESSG

T12: LIN7B, Q9HAP6
T12 sequence (Q9HAP6 88-185, limits assumed, looked up): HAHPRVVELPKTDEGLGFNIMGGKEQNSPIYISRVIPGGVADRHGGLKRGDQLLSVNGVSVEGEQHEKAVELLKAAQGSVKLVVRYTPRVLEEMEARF

T13: MPDZ_12, O75970
T13 sequence (O75970 1857-1958, limits assumed, looked up): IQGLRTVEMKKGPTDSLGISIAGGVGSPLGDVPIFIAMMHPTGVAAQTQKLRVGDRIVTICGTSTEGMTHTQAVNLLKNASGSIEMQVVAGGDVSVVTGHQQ


What was measured:
Experiment in all cases: holdup assay
Parameters in all cases: key: below the threshold = too weak to quantify, mostly under pKd 3.1 to 4
Details in all cases: plain residues with an end cap or a label only (N-terminal biotin on a linker: ado-ado)
DFNB31_2, Q9P202 = target: T1, DFNB31_2, Q9P202
DFNB31_3, Q9P202 = target: T2, DFNB31_3, Q9P202
DLG1_1, Q12959 = target: DLG1_1, Q12959
DLG3_3, Q92796 = target: T3, DLG3_3, Q92796
GRIP1_4, Q9Y3R0 = target: T4, GRIP1_4, Q9Y3R0
GRIP2_5, Q9C0E4 = target: GRIP2_5, Q9C0E4
Inadl_2, Q8NI35 = target: Inadl_2, Q8NI35
LNX1_3, Q8TBB1 = target: LNX1_3, Q8TBB1
LRRC7, Q96NW7 = target: T5, LRRC7, Q96NW7
MAST2, Q6P0Q8 = target: MAST2, Q6P0Q8
MPP2, Q14168 = target: T6, MPP2, Q14168
NHERF2_2, Q15599 = target: NHERF2_2, Q15599
NHERF3_4, Q5T2W1 = target: T7, NHERF3_4, Q5T2W1
PARD3B_1, Q8TEW8 = target: T8, PARD3B_1, Q8TEW8
PDZD2_2, O15018 = target: T9, PDZD2_2, O15018
PDZRN4_1, Q6ZMN7 = target: PDZRN4_1, Q6ZMN7
RAPGEF6, Q8TEU7 = target: T10, RAPGEF6, Q8TEU7
SCRIB_1, Q14160 = target: SCRIB_1, Q14160
SCRIB_3, Q14160 = target: SCRIB_3, Q14160
SNX27, Q96L92 = target: SNX27, Q96L92
GRIP1_5, Q9Y3R0 = target: T11, GRIP1_5, Q9Y3R0
LIN7B, Q9HAP6 = target: T12, LIN7B, Q9HAP6
MPDZ_12, O75970 = target: T13, MPDZ_12, O75970
TJP2_1, Q9UDY2 = target: TJP2_1, Q9UDY2
TJP2_1, Q9UDY2, sequence (Q9UDY2 24-128): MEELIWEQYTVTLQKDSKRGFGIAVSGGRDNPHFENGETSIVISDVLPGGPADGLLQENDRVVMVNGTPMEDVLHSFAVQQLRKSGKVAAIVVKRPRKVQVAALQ

GRIP2_5, Q9C0E4, sequence (Q9C0E4 544-642): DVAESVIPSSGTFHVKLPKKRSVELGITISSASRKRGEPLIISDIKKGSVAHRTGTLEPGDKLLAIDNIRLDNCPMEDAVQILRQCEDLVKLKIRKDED
NHERF2_2, Q15599, sequence (Q15599 142-238): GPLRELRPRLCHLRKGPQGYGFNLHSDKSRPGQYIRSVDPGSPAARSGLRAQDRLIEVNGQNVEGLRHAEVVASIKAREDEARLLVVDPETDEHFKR
LNX1_3, Q8TBB1, sequence (Q8TBB1 500-596): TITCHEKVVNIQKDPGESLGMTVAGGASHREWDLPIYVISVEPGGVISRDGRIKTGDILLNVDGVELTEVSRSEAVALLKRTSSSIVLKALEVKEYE
SCRIB_3, Q14160, sequence (Q14160 999-1103): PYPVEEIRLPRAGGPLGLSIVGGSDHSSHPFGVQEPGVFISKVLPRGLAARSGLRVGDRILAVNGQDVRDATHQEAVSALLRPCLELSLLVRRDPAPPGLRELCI
MAST2, Q6P0Q8, sequence (Q6P0Q8 1099-1202): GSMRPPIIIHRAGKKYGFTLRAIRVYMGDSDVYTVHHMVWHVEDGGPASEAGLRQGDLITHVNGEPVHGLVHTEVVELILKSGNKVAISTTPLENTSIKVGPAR
SCRIB_1, Q14160, sequence (Q14160 718-814): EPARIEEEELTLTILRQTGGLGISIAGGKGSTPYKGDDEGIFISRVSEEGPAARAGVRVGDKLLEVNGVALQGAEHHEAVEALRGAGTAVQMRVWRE
PDZRN4_1, Q6ZMN7, sequence (Q6ZMN7 213-318): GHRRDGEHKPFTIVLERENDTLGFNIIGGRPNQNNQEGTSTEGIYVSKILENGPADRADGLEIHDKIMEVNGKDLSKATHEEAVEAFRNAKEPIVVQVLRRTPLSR
Inadl_2, Q8NI35, sequence (Q8NI35 238-335): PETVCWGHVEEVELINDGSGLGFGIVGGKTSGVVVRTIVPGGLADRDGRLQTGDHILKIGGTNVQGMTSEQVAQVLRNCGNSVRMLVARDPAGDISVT

Row | Binder | pKd (DFNB31_2, Q9P202) | pKd (DFNB31_3, Q9P202) | pKd (DLG1_1, Q12959) | pKd (DLG3_3, Q92796) | pKd (GRIP1_4, Q9Y3R0) | pKd (GRIP2_5, Q9C0E4) | pKd (Inadl_2, Q8NI35) | pKd (LNX1_3, Q8TBB1) | pKd (LRRC7, Q96NW7) | pKd (MAST2, Q6P0Q8) | pKd (MPP2, Q14168) | pKd (NHERF2_2, Q15599) | pKd (NHERF3_4, Q5T2W1) | pKd (PARD3B_1, Q8TEW8) | pKd (PDZD2_2, O15018) | pKd (PDZRN4_1, Q6ZMN7) | pKd (RAPGEF6, Q8TEU7) | pKd (SCRIB_1, Q14160) | pKd (SCRIB_3, Q14160) | pKd (SNX27, Q96L92) | further results
1 | EYRKDNKVAA [LSM14A, Q8ND56;Q8ND56-2] | below the threshold | below the threshold | below the threshold | below the threshold | below the threshold | below the threshold | below the threshold | below the threshold | below the threshold | below the threshold | below the threshold | below the threshold | below the threshold | below the threshold | below the threshold | below the threshold | below the threshold | below the threshold | below the threshold | below the threshold | –
2 | GDHLDRRVVL [VAC14, Q08AM6] | 3.51 | 3.82 | below the threshold | below the threshold | below the threshold | below the threshold | below the threshold | below the threshold | below the threshold | 4.1 | below the threshold | below the threshold | below the threshold | 5.17 | below the threshold | below the threshold | below the threshold | below the threshold | below the threshold | below the threshold | pKd (GRIP1_5, Q9Y3R0): below the threshold; pKd (LIN7B, Q9HAP6): below the threshold; pKd (MPDZ_12, O75970): 3.75; pKd (TJP2_1, Q9UDY2): below the threshold
3 | LRYARPADAL [PPP1R3G, B7ZBB8] | below the threshold | below the threshold | below the threshold | below the threshold | below the threshold | below the threshold | below the threshold | below the threshold | below the threshold | below the threshold | below the threshold | below the threshold | below the threshold | below the threshold | below the threshold | below the threshold | below the threshold | below the threshold | below the threshold | 3.49 | pKd (GRIP1_5, Q9Y3R0): below the threshold; pKd (LIN7B, Q9HAP6): below the threshold; pKd (MPDZ_12, O75970): below the threshold; pKd (TJP2_1, Q9UDY2): below the threshold
4 | SKSLERATQL [COMMD3, Q9UBI1] | below the threshold | 4.25 | 3.55 | 3.74 | below the threshold | below the threshold | below the threshold | below the threshold | below the threshold | 5.7 | below the threshold | 4.58 | 4.67 | 3.95 | 3.95 | 3.89 | 3.85 | 3.83 | 4.54 | 4.25 | pKd (GRIP1_5, Q9Y3R0): below the threshold; pKd (LIN7B, Q9HAP6): 3.87; pKd (MPDZ_12, O75970): below the threshold; pKd (TJP2_1, Q9UDY2): 3.72
5 | QELLEYETTV [XKR7, Q5GH72] | below the threshold | below the threshold | 4.96 | 3.88 | below the threshold | 3.48 | below the threshold | below the threshold | below the threshold | 5.46 | below the threshold | 4.33 | below the threshold | below the threshold | 5.17 | 4.55 | below the threshold | 4.41 | 4.81 | 5.77 | pKd (GRIP1_5, Q9Y3R0): below the threshold; pKd (LIN7B, Q9HAP6): 4.5; pKd (MPDZ_12, O75970): below the threshold; pKd (TJP2_1, Q9UDY2): below the threshold
6 | KSTTRSSSSC [NDE1, Q9NXR1;Q9NXR1-2] | below the threshold | – | below the threshold | below the threshold | below the threshold | below the threshold | below the threshold | below the threshold | below the threshold | 4.06 | below the threshold | below the threshold | below the threshold | below the threshold | 4.09 | below the threshold | below the threshold | below the threshold | below the threshold | below the threshold | pKd (GRIP1_5, Q9Y3R0): below the threshold; pKd (MPDZ_12, O75970): below the threshold; pKd (TJP2_1, Q9UDY2): below the threshold
